From patent US20250002587A1 (University of California, published 2025) come the findings set out here.

One may read the Kd as the concentration at which binding is half-saturated. What is called EC50 (read off the curve) is the concentration that produces a half-maximal response. A low value points to greater potency.

Read-outs that look alike come from different tables or passages of the source.

Assay [1] deals with T1, recombinant human αvβ8 (human, UniProt P06756 31-992; P26012 43-684).
T1 construct: Soluble recombinant heterodimer used as analyte at 200 nM in BLI
The assay can be described thus: bio-layer interferometry, IgG on anti-human Fab-CH1 tips, αvβ8 200 nM. As to the method: (§1) The affinities of humanized, affinity-matured anti-αvβ8 IgGs (ADWA16-1, ADWA16-2, ADWA16-3, and ADWA16-4) and a chimeric version of the parent ADWA-16 murine IgG (ADWA16-chimera) were measured for recombinant human and mouse αvβ8 using bio-layer interferometry. Anti-human Fab-CH1 tips were loaded with humanized anti-αvβ8 IgGs (ADWA16-1, ADWA16-2, ADWA16-3, and ADWA16-4) or chimeric ADWA-16 followed by an association step with either human or mouse αvβ8 (200 nM) and a subsequent dissociation step. All steps were carried out in binding buffer (25 mM Tris, 0.15 M NaCl, 0.05% Tween-20, pH 7.5). Binding affinities (shown in Table 2) were calculated using curve-fitting software. FIGS. 3A-3E show association/dissociation curves for each antibody.
(In general: In BLI a coated tip is dipped into the sample, and binding shifts an interference pattern.)

The target in assay [2] is T2, recombinant mouse αvβ8 (mouse, UniProt P43406 31-988; Q0VBD0 43-681, limits assumed).
T2 construct: Soluble recombinant heterodimer used as analyte at 200 nM in BLI
The assay is described as above. As for the experimental part:
as §1

Assay [3] concerns the target T3, cell surface-expressed human αvβ8 (human, UniProt P06756 31-1048; P26012 43-769). The assay can be described thus: cell-based or functional assay.
Assay [4] has as its target T4, cell surface expressed human αvβ5 (mock transfected SW480 cells) (human, UniProt P06756 31-1048; P18084 24-799).
T4 construct: whole, on cells
Kind of assay: flow cytometry on mock transfected SW480 cells (express only αvβ5); panel head 'A09 SW antihuman con'. As for the experimental part: (§2) The binding of ADWA16 and ADWA16-3.2 to cell surface expressed human αvβ3, αvβ5, αvβ6, and αvβ8 was tested by FACS. Flow cytometry was performed with either ADWA16-3 or ADWA16-3.2 with mock transfected SW480 cells (that express only αvβ5 integrin). SW480 cells were also transfected to express αvβ3 or αvβ6. SNB19 cells expressed αvβ3, αvβ5, and αvβ8.

In assay [5] the target is T3, cell surface-expressed human αvβ8. Kind of assay: FACS titration on SNB19 human astrocytoma cells; Example 7 FACS series on SNB19 cells, run beside ADWA16-3.2. As to the method:
(§3) The affinities of humanized, affinity-matured, and N-glycosylation site removed anti-αvβ8 IgGs (ADWA16-3 and ADWA16-3.2) were measured on SNB19 human astrocytoma cells by FACS. IgGs were incubated at various concentrations with SNB19 cells for 1 hr at RT in PBS. Cells were washed twice with PBS and binding was detected by incubation with fluorescently-labeled anti-human secondary antibodies followed by two PBS wash steps and analysis by FACS.

Assay [6] concerns the target T1, recombinant human αvβ8. Kind of assay: bio-layer interferometry, IgG on anti-human Fab-CH1 tips, αvβ8 200 nM. As for the experimental part: (§4) The affinities of humanized, affinity-matured anti-αvβ8 IgGs (ADWA16-3 and ADWA16-3.2) and a chimeric version of the parent ADWA16 murine IgG (ADWA16-chimera) were measured for recombinant human and mouse αvβ8 using bio-layer interferometry. Anti-human Fab-CH1 tips were loaded with humanized anti-αvβ8 IgGs or chimeric ADWA16 followed by an association step with either human or mouse αvβ8 (200 nM) and a subsequent dissociation step. All steps were carried out in binding buffer (25 mM Tris, 0.15 M NaCl, 0.05% Tween-20, pH 7.5). Binding affinities (shown in Table 4) were calculated using curve-fitting software.
The source holds these as a separate data set.

Assay [7] addresses T2, recombinant mouse αvβ8. The description is as above. As to the method:
as §4
The source holds these as a separate data set.

Assay [8] addresses T3, cell surface-expressed human αvβ8. The assay can be described thus: FACS titration on SNB19 human astrocytoma cells; Table 3 FACS series on SNB19 cells, run beside ADWA16, 16-chimera and 16-1 to 16-4. As to the method:
(§5) The affinities of humanized, affinity-matured anti-αvβ8 IgGs (ADWA16-1, ADWA16-2, ADWA16-3, and ADWA16-4), a chimeric version of the parent ADWA16 murine IgG (ADWA16-chimera), and ADWA16 were measured on SNB19 human astrocytoma cells by FACS. IgGs were incubated at various concentrations with SNB19 cells for 1 hr at RT in PBS. Cells were washed twice with PBS and binding was detected by incubation with fluorescently-labeled anti-human (ADWA16-1, ADWA16-2, ADWA16-3, ADWA16-4, and ADWA16-chimera) or anti-mouse (ADWA16) secondary antibodies followed by two PBS wash steps and analysis by FACS. Binding affinities (shown in Table 3) were calculated using curve-fitting software.

In assay [9] the target is T5, cell surface expressed human αvβ6 (SW480 cells transfected to express αvβ6) (human, UniProt P06756 31-1048; P18564 22-788).
T5 construct: whole, on cells
The assay can be described thus: flow cytometry on transfected SW480 cells. As for the experimental part: as §2
(In general: In flow cytometry, cells or beads pass a laser one at a time.)

The target of assay [10] is T6, cell surface expressed human αvβ3 (SW480 cells transfected to express αvβ3) (human, UniProt P06756 31-1048; P05106 27-788).
T6 construct: whole, on cells
The assay can be described thus: flow cytometry on transfected SW480 cells. As for the experimental part:
as §2

The target in assay [11] is T3, cell surface-expressed human αvβ8. Kind of assay: FACS titration on SNB19 human astrocytoma cells. As for the experimental part:
as §5

Assay [12] has the same target. The assay can be described thus: FACS titration on SNB19 human astrocytoma cells; Example 13 FACS series on SNB19 cells, run beside ADWA11. As for the experimental part: (§6) The affinities of ADWA16-3.2 and ADWA11 were measured on SNB19 human astrocytoma cells by FACS. IgGs were incubated at various concentrations with SNB19 cells for 1 hour at RT in PBS. Cells were washed twice with PBS and binding was detected by incubation with fluorescently-labeled anti-human secondary antibodies followed by two PBS wash steps and analysis by FACS. Binding affinities were calculated using curve-fitting software.

The target is the same in assay [13]. The assay can be described thus: FACS titration on SNB19 human astrocytoma cells; Example 7 FACS series on SNB19 cells, run beside ADWA16-3. As to the method: as §3
Assay [14] shares this target. Kind of assay: FACS on SNB19 human astrocytoma cells, fluorescent secondary antibody. As to the method:
as §6

Assay [15] deals with T7, surface-expressed mouse αvβ8 on murine astrocytes (mouse, UniProt P43406 31-1044; Q0VBD0 22-767).
T7 construct: whole, on cells
The assay can be described thus: FACS titration on murine astrocytes. As for the experimental part: The affinities of ADWA16, ADWA11, and ADWA16-3.2 were measured on murine astrocytes by FACS. IgGs were incubated at various concentrations with the cells for 1 hr at RT in PBS. Cells were washed twice with PBS and binding was detected by incubation with fluorescently-labeled anti-human or anti-mouse secondary antibodies followed by two PBS wash steps and analysis by FACS.

T3 sequence (P06756 31-1048, chain 1 of 2): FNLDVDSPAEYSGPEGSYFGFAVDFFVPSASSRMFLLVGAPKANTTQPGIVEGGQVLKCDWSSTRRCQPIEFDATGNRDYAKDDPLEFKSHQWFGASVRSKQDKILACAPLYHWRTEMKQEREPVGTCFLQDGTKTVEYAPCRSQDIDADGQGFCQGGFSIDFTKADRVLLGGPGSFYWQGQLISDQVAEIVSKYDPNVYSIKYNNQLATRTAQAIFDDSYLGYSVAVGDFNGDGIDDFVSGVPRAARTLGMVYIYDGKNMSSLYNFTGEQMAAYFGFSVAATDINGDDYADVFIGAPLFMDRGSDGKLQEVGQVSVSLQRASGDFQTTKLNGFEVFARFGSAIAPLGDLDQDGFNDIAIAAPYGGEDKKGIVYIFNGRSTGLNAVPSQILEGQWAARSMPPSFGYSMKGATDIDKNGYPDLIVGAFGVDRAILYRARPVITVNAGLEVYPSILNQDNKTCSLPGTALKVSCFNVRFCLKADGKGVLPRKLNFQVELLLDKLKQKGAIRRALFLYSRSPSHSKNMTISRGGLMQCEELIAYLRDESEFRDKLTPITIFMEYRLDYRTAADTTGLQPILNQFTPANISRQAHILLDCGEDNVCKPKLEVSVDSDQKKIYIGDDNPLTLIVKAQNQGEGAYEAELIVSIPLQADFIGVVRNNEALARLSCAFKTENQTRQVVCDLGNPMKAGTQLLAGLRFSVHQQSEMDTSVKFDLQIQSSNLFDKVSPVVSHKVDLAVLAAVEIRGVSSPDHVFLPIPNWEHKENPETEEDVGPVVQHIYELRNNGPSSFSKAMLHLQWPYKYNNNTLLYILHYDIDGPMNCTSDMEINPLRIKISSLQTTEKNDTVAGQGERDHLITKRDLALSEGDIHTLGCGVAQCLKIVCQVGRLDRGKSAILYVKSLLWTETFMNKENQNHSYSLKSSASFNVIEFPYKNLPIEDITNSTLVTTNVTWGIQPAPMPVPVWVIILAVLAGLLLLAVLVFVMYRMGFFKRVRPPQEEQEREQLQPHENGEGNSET
T3 sequence (P26012 43-769, chain 2 of 2): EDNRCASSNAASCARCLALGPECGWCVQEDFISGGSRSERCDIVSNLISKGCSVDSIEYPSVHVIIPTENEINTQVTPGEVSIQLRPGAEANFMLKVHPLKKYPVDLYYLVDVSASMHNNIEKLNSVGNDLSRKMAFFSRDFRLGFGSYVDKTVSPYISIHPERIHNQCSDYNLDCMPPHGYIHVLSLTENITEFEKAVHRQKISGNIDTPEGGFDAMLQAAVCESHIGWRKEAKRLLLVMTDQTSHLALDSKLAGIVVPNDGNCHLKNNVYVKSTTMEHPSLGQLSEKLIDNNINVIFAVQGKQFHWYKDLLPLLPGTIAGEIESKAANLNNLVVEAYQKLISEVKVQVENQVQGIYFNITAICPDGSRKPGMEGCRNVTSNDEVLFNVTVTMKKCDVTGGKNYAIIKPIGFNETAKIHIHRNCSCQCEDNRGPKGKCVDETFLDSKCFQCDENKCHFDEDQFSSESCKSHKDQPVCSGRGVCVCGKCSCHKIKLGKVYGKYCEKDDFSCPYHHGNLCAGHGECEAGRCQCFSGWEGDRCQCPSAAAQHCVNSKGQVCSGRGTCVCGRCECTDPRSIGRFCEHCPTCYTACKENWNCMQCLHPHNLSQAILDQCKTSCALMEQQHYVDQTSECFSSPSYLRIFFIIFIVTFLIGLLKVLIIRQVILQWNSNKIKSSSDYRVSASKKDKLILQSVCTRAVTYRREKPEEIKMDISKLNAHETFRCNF
T1 sequence (P06756 31-992 limits assumed, chain 1 of 2): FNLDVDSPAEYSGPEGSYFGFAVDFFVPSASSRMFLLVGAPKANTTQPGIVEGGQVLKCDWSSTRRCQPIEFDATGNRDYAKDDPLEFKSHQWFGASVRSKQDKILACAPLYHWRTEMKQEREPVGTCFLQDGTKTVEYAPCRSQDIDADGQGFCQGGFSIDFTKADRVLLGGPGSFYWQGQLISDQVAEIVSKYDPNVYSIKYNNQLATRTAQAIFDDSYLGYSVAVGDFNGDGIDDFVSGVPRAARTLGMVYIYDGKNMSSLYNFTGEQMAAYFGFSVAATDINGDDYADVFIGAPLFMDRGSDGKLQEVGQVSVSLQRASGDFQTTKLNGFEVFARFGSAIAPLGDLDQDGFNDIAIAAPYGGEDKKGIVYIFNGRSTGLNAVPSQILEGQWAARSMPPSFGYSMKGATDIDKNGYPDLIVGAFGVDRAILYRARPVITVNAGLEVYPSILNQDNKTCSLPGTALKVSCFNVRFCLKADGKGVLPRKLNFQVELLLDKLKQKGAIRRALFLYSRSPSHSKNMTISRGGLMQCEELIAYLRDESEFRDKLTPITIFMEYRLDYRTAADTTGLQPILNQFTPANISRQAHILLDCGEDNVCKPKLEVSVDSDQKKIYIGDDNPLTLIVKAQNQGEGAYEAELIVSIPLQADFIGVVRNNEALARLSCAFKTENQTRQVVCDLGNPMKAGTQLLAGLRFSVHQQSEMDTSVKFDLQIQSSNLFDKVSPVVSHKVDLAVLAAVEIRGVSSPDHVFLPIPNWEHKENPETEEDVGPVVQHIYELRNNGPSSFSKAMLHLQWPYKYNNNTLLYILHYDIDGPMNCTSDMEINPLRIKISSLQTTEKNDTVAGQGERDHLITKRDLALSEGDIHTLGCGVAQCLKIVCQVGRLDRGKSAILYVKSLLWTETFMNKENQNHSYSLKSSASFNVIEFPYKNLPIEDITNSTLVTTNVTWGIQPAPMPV
T1 sequence (P26012 43-684 limits assumed, chain 2 of 2): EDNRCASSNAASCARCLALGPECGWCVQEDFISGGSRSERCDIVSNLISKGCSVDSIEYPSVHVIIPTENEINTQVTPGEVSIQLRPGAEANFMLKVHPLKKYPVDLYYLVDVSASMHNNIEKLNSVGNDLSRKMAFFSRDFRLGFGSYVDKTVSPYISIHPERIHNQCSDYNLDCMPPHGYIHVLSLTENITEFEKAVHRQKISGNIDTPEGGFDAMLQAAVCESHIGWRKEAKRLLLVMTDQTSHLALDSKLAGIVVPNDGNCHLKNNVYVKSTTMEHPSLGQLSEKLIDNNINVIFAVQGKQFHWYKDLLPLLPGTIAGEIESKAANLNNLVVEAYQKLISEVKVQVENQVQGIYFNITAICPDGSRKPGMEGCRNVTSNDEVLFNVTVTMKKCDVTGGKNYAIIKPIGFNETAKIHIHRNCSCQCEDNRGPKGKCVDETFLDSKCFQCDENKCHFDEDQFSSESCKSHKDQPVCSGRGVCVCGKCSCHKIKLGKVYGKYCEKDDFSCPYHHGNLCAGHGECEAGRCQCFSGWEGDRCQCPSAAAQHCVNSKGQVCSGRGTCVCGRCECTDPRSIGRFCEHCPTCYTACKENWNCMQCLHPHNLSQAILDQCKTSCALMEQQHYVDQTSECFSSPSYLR
T2 sequence (P43406 31-988 limits assumed, chain 1 of 2): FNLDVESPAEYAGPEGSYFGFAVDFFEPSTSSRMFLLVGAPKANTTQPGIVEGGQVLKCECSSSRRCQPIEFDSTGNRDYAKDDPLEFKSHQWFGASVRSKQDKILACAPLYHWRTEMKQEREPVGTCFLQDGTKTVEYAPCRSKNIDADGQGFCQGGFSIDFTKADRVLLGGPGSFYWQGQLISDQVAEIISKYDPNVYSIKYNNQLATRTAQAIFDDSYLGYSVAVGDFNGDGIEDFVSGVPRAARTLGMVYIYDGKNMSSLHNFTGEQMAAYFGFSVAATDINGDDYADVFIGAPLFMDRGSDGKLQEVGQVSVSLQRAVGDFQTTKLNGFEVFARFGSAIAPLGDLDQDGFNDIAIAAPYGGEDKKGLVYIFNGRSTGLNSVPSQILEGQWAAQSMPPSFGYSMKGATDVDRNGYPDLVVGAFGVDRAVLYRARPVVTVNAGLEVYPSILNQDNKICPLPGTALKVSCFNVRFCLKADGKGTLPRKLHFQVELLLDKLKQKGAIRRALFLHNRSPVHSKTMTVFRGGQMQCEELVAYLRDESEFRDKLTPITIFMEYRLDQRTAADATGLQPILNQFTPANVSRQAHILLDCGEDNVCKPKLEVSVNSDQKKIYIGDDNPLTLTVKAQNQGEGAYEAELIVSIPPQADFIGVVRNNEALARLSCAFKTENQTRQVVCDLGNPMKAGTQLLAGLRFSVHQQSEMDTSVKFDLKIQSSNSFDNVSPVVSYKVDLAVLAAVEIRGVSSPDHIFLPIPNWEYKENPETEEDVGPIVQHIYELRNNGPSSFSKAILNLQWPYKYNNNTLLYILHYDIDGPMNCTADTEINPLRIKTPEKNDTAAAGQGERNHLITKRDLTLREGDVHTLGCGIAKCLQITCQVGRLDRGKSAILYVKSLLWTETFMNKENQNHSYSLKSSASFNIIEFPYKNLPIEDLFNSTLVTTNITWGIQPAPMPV
T2 sequence (Q0VBD0 43-681 limits assumed, chain 2 of 2): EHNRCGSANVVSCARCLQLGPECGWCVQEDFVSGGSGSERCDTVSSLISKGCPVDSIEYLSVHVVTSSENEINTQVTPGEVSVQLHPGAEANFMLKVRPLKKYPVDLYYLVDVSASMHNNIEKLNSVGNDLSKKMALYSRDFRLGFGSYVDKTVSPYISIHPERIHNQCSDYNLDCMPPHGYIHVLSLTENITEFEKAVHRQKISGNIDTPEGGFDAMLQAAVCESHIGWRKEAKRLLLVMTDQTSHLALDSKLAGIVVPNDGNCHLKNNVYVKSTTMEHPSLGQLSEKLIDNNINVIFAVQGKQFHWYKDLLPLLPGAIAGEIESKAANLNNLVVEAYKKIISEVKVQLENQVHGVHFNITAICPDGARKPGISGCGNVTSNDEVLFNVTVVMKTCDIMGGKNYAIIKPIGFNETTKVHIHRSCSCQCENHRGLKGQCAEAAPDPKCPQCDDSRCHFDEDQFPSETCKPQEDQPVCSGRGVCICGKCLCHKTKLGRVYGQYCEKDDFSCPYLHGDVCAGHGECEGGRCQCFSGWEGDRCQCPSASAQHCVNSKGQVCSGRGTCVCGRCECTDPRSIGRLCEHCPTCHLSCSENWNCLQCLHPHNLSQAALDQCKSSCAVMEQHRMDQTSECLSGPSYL

B1: ADWA16-3 (antibody, V domains shown)
VH: EVQLVESGGGLVQPGGSLRLSCAVSGYIFSSYWVYWVRQAPGKGLEWVGYINPTTGYTEYADSVKGRFTISRDNSKNTLYLQMNSLRAEDTAVYYCATEGGNWEDYWGQGTLVTVSS
VL: DIQMTQSPSSLSASVGDRVTITCRASQDISNYINWYQQKPGKAPKLLIYYTSRLYGGVPSRFSGSGSGTDFTLTISSLQPEDFATYYCQQFSELPRTFGQGTKVEIK
As for B1, the Kd in the assay with recombinant human αvβ8 [1] amounted to 830 pM; with recombinant mouse αvβ8 [2], 5000 pM; in assay [5], 830 pM; with recombinant human αvβ8 [6], 1160 pM; with recombinant mouse αvβ8 [7], 3150 pM; in [8], 389 pM. Moreover, the “IC50, inhibition of TGFβ activation (SNB19 / TMLC luciferase reporter co-culture)” value in [3] is 1360 pM. In addition, the binding result in assay [4], in [9] and in assay [10] was “no binding” throughout.

B2: ADWA16-2 (antibody, V domains shown)
VH: EVQLVESGGGLVQPGGSLRLSCAVSGYIFSSYWVYWVRQAPGKGLEWVGYINPTTGYTEYADSVKGRFTISRDNSKNTLYLQMNSLRAEDTAVYYCATEGGNWEDYWGQGTLVTVSS
VL: DIQMTQSPSSLSASVGDRVTITCRASKDISNYLNWYQQKPGKAPKLLIYYTSRLYSGVPSRFSGSGSGTDFTLTISSLQPEDFATYYCQQFSELPRTFGQGTKVEIK
For B2, the Kd in the assay with recombinant human αvβ8 [1] was 2000 pM; with recombinant mouse αvβ8 [2] it was 8500 pM; in assay [11] it was 498 pM.

B3: ADWA16-1 (antibody, V domains shown)
VH: EVQLVESGGGLVQPGGSLRLSCAVSGYIFSSYWVYWVRQAPGKGLEWVGYINPTTGYTEYADSVKGRFTISRDNSKNTLYLQMNSLRAEDTAVYYCATEGGNWEDYWGQGTLVTVSS
VL: DIQMTQSPSSLSASVGDRVTITCRASQDISNYINWYQQKPGKAPKLLIYYTSRLYSGVPSRFSGSGSGTDFTLTISSLQPEDFATYYCQQFSELPRTFGQGTKVEIK
On to B3, for which the figures for the Kd (in the assay with recombinant human αvβ8 [1]; in the assay with recombinant mouse αvβ8 [2]; in assay [11]) were 730 pM, 4800 pM and 459 pM, respectively.

B4: ADWA16-4 (antibody, V domains shown)
VH: EVQLVESGGGLVQPGGSLRLSCAVSGYIFSSYWVYWVRQAPGKGLEWVGYINPTTGYTEYADSVKGRFTISRDNSKNTLYLQMNSLRAEDTAVYYCATEGGNWEDYWGQGTLVTVSS
VL: DIQMTQSPSSLSASVGDRVTITCRASKDISNYINWYQQKPGKAPKLLIYYTSRLYGGVPSRFSGSGSGTDFTLTISSLQPEDFATYYCQQFSELPRTFGQGTKVEIK
As for B4, the equilibrium dissociation constant (Kd) in the assay with recombinant human αvβ8 [1] was found to be 860 pM; with recombinant mouse αvβ8 [2] it was 8000 pM; in assay [11], 614 pM.

B5: ADWA16-3.2 (antibody, V domains shown)
VH: EVQLVESGGGLVQPGGSLRLSCAVSGYIFSSYWVYWVRQAPGKGLEWVGYISPTTGYTVYADSVKGRFTISRDNSKNTLYLQMNSLRAEDTAVYYCATEGGNWEDYWGQGTLVTVSS
VL: DIQMTQSPSSLSASVGDRVTITCRASQDISNYINWYQQKPGKAPKLLIYYTSRLYGGVPSRFSGSGSGTDFTLTISSLQPEDFATYYCQQFSELPRTFGQGTKVEIK
notes: also called humanized derivative of ADWA16
With B5, the equilibrium dissociation constant (Kd) in [12] came out at 392 pM; in assay [13], 512 pM; with recombinant human αvβ8 [6], 688 pM; with recombinant mouse αvβ8 [7], 1060 pM; in assay [15] it was 1100 pM. In [3], the “IC50, inhibition of SNB19 cell adhesion to TGFb1 LAP” value amounted to 650 pM. Also, the “IC50, inhibition of SNB19 cell adhesion to TGFβ1-LAP” value in assay [3] came out at 2100 pM. For the same molecule, the “IC50, inhibition of TGFβ activation (SNB19 / TMLC luciferase reporter co-culture)” value in assay [3] was determined as 580 pM. Moreover, the binding result in assay [4], in assay [9] and in assay [10] was “no binding” throughout. Further, the “EC50 (read off the curve)” value in assay [14] was about 400 pM.

B6: ADWA16 (antibody, V domains shown)
VH: QVQLQQSGAELAKPGASMKMSCKASGYTFSSYWIYWVKQRPGQGLEWIGYINPTTGYTEYNQKFRDKATLTADKSSNTAYMQLSSLTSEDSAVYYCATEGGNWEDYWGQGTTLTVSS
VL: DIQMTQTTSSLSASLGDRVTISCRASQDISNYLNWYQQKPDGTVKLLIYYTSRLYSGVPSRFSGSGSGTDYSLTISNLEPKDIATYYCQQFSELPRTFGGGTKLEIK
notes: Murine IgG, detected with anti-mouse secondary antibody; also called parent murine IgG; murine parent ADWA16
Take B6: in [3], the “IC50, inhibition of SNB19 cell adhesion to TGFβ1-LAP” value stood at 1100 pM; the “IC50, inhibition of TGFβ activation (SNB19 / TMLC luciferase reporter co-culture)” value is 364 pM; the “inhibition of adhesion of L229 cells to LAP (potency relative to ADWA11)” value is about 10 fold. Besides, in assay [11], the affinity, expressed as Kd, was 417 pM.

B7: ADWA16-chimera (antibody, V domains shown)
VH: QVQLQQSGAELAKPGASMKMSCKASGYTFSSYWIYWVKQRPGQGLEWIGYINPTTGYTEYNQKFRDKATLTADKSSNTAYMQLSSLTSEDSAVYYCATEGGNWEDYWGQGTTLTVSS
VL: DIQMTQTTSSLSASLGDRVTISCRASQDISNYLNWYQQKPDGTVKLLIYYTSRLYSGVPSRFSGSGSGTDYSLTISNLEPKDIATYYCQQFSELPRTFGGGTKLEIK
notes: It was captured on anti-human Fab-CH1 tips and detected with anti-human secondary, so it has human constant regions; also called chimeric ADWA-16; chimeric version of the parent ADWA16 murine IgG
Take B7: the Kd was 950 pM with recombinant human αvβ8 [1]; 21000 pM with recombinant mouse αvβ8 [2]; 950 pM with recombinant human αvβ8 [6]; 21000 pM in the assay with recombinant mouse αvβ8 [7]; 302 pM in assay [11].
